Measurements: patent publication US20030206865A1, “Conjugates of macrocyclic metal complexes with biomolecules and their use for the production of agents for NMR diagnosis and radiodiagnosis as well as radiotherapy” (Schering AG, priority 2001, published 2003)

Test: Relaxivity measurement of BSA conjugates in aqueous solution and in plasma
Type: physicochemical
Details: relaxivity per mol of gadolinium, calculated from the measured values, +37° C., 20 MHz
Protocol: In this example, the relaxivities of the conjugates from Examples 30-38 were compared with the relaxivities of two comparison substances. As comparison substances, Gd-DTPA (1) with the formula: [drawing 16]
and Gd-GlyMeDOTA (2) with the formula: [drawing 17]
which were reacted in each case with bovine serum albumin (BSA), were used.
The measurements were made in each case in aqueous solution and in plasma at +37° C. and a frequency of 20 MHz. The results are summarized in Table 2 below, whereby the indicated relaxivities per mol of gadolinium were calculated from the measured values: […]

Substance: Gd-GlyMeDOTA [Vergleichssubstanz 2, reference compound]
- R1 (H2O) (aqueous solution): 18.3 L/mmol/s
- R1 (Plasma) (plasma): 20.8 L/mmol/s
